The text below walks through data of patent publication US8247535B2, “Directed evolution of GRG31 EPSP synthase enzyme” (Athenix Corp., priority 2008, dated 2012).

Data set [1] has as its target GRG31 EPSP synthase. Nature of the data set: Kinetic analysis of GRG31 variants (Ki for glyphosate, Km for PEP, Vmax). The class given is biochemical. More on the design: Vmax: unit not given here. Particulars: for Ki: Ki for glyphosate, calculated from plot of Km(app) vs. glyphosate concentration; for Km: Km for PEP; for Vmax: unit not given. The protocol:
GRG31 variants L3P2b11, L3P2c11 and L4e11, and L5e3 were characterized by enzymatic assays as described herein, and compared to the native GRG31 enzyme. For each enzyme the apparent Km (Km(app)) was determined at each of several glyphosate concentrations, and a plot of Km(app) vs. glyphosate concentration was used to calculate the Ki for each enzyme. The thermostability for each enzyme was assessed by incubating the enzyme at 37° C. for 16 hours, and then quantifying the enzymatic activity remaining (as Vmax) vs. control enzyme that was incubated at 4° C.

Data set [2] has as its system GRG31 EPSP synthase. Nature of the data set: Thermostability of extracts of GRG31 point mutants at 37° C. The data set is classed as biochemical. Particulars: for thermostability of extracts of error prone PCR clones: extracts of 95 clones, in words. The protocol: To improve the thermostability of GRG31, error prone PCR mutagenesis of GRG31 was performed. Forty-five thousand (45,000) clones were plated onto 50 mM glyphosate, and ninety-five (95) clones were picked.
To further investigate the contributions of various substitutions in these positions, several point mutations were generated at positions corresponding to amino acid positions 95, 206, and 215 of GRG31. Extracts of point mutants were tested for thermostability at 37° C.: […]

Data set [3] deals with GRG31 EPSP synthase. Kind of data set: Thermostability of purified GRG31 variant proteins (4 hrs at 37° C.). Particulars: in words. The data set is classed as biochemical. The protocol: GRG31 variants L3P2b11, L3P2c11 and L4e11, and L5e3 were characterized by enzymatic assays as described herein, and compared to the native GRG31 enzyme. For each enzyme the apparent Km (Km(app)) was determined at each of several glyphosate concentrations, and a plot of Km(app) vs. glyphosate concentration was used to calculate the Ki for each enzyme. […]
Three variants (6b2, 6e7, and the triple EK (N95S A206V E215K; SEQ ID NO:20)) were grown, their proteins purified, and the thermostability of the proteins analyzed in more detail.

In data set [4] the test system is GRG31 EPSP synthase. The data set is classed as biochemical. The protocol: The thermostability of several variants of GRG31 was analyzed by measuring survival of activity at 37° C.
Another data set concerns BL21*DE3 cells. Kind of data set: Glyphosate growth screen on agar plates. The class given is cell-based, E. coli. As to conditions: 1×M63 minimal medium; 0.05 mM IPTG; expression construct pAX1945. The text has this:
A glyphosate growth screen was developed. […] Library 1 was cloned into pAX1945 between the MfeI and AlwN1 restriction sites.
Clone pAX3625 contains a grg31 variant having an in-frame stop codon that disrupts the GRG31 open reading frame.

Setting [5] is: extracts of point mutants, Table 8.
Setting [6] is: extracts, separate experiment, Table 9.

B1: 6b2: GRG31 variant N95→S, A206→V, SEQ ID NO:18 (protein)
chain: MNQQVITLTHPSKKIQGTVQLTGSKSESNRALIIQSLSKGQVEIANLSEAADTVTLNRVLQIASDPKPGFNTIDIGPAGTAMRFLTAYLNLVKGSFILTGTERMQQRPIGILVDAMKEIGADIHYDKKVGYPPLKIEGGLFQEKDRVKIKGNISSQYISALLLIAPALKKGLTLEIEGELTSRPYVSMTLDMLKSVGIQHEWKNNVIKIAPQAFEKQTIYVEPDWSAASYWYAIAALADANASIVLPGLRKNSLQGDIAIISIMEHFGVQSSFESDGLHLNKKVIGSDVSLFNFKECPDLAQTVVVVAAALKRDVSFTGLETLKIKETDRIAALQKEIAKFGAELIEDGDTYHLKTAQVYQPEEVTFDTYEDHRMAMAFAPLALVFDQIKIAEPQVVEKSYPDFWNHLQAQAFVIE
modifications: GRG31 variant (clone 6b2)
As usually defined, the Km is the concentration of substrate that gives half-maximal velocity. For B1, on GRG31 EPSP synthase [1], the Ki was 92 µM, the Km turned out to be 6.5 µM and the Vmax was determined as 34. Also, the “improvement in Km for PEP relative to GRG31” value in the data set on GRG31 EPSP synthase [1] (relative to GRG31, in words) is recorded as “improved (lower)”. Further, the “thermostability of extracts of error prone PCR clones” value in the data set on GRG31 EPSP synthase [2] is listed as “increased thermostability”. For the same molecule, in the data set with GRG31 EPSP synthase [2] (setting [5]), the “Percent of Wt GRG31 activity (4 hrs at 37° C.)” value (shortened to “Percent of Wt GRG31 activity”) is 228%. For the same molecule, the “Percent of Wt GRG31 activity” value in the data set with GRG31 EPSP synthase [2] (setting [6]) was determined as 139%. In the data set with GRG31 EPSP synthase [3], the “thermostability compared to wild-type GRG31” value is “increased thermostability”.

B2: GRG31: native (wild-type) GRG31 EPSP synthase, SEQ ID NO:2 (protein)
chain: MNQQVITLTHPSKKIQGTVQLTGSKSESNRALIIQSLSKGQVEIANLSEAADTVTLNRVLQIASDPKPGFNTIDIGPAGTAMRFLTAYLNLVKGNFILTGTERMQQRPIGILVDAMKEIGADIHYDKKVGYPPLKIEGGLFQEKDRVKIKGNISSQYISALLLIAPALKKGLTLEIEGELTSRPYVSMTLDMLKSVGIQHEWKNNAIKIAPQAFEKQTIYVEPDWSAASYWYAIAALADANASIVLPGLRKNSLQGDIAIISIMEHFGVQSSFESDGLHLNKKVIGSDVSLFNFKECPDLAQTVVVVAAALKRDVSFTGLETLKIKETDRIAALQKEIAKFGAELIEDGDTYHLKTAQVYQPEEVTFDTYEDHRMAMAFAPLALVFDQIKIAEPQVVEKSYPDFWNHLQAQAFVIE
In the case of B2, at GRG31 EPSP synthase [1], the Ki is 73 µM, the Km turned out to be 23 µM and the Vmax was found to be 29.3. Also, in the data set with GRG31 EPSP synthase [4], the “t1/2 at 37° C.” value was found to be 2.7 h. Moreover, the “glyphosate concentration of agar plates on which cells grow” value in the data set with BL21*DE3 cells is “up to 50 mM”.

B3: Triple EK: GRG31 variant N95S A206V E215K, SEQ ID NO:20 (protein)
chain: MNQQVITLTHPSKKIQGTVQLTGSKSESNRALIIQSLSKGQVEIANLSEAADTVTLNRVLQIASDPKPGFNTIDIGPAGTAMRFLTAYLNLVKGSFILTGTERMQQRPIGILVDAMKEIGADIHYDKKVGYPPLKIEGGLFQEKDRVKIKGNISSQYISALLLIAPALKKGLTLEIEGELTSRPYVSMTLDMLKSVGIQHEWKNNVIKIAPQAFKKQTIYVEPDWSAASYWYAIAALADANASIVLPGLRKNSLQGDIAIISIMEHFGVQSSFESDGLHLNKKVIGSDVSLFNFKECPDLAQTVVVVAAALKRDVSFTGLETLKIKETDRIAALQKEIAKFGAELIEDGDTYHLKTAQVYQPEEVTFDTYEDHRMAMAFAPLALVFDQIKIAEPQVVEKSYPDFWNHLQAQAFVIE
modifications: GRG31 variant (triple EK)
On to B3, for which, on GRG31 EPSP synthase [1], the Ki was 48.2 µM, the Km was found to be 7.2 µM and the Vmax worked out at 33. For the same molecule, in the data set on GRG31 EPSP synthase [1] (relative to GRG31, in words), the “improvement in Km for PEP relative to GRG31” value is “improved (lower)”. Besides, in the data set on GRG31 EPSP synthase [3], the “thermostability compared to wild-type GRG31” value is on record as “increased thermostability”.

B4: 6e7: GRG31 variant E215→K, SEQ ID NO:19 (protein)
chain: MNQQVITLTHPSKKIQGTVQLTGSKSESNRALIIQSLSKGQVEIANLSEAADTVTLNRVLQIASDPKPGFNTIDIGPAGTAMRFLTAYLNLVKGNFILTGTERMQQRPIGILVDAMKEIGADIHYDKKVGYPPLKIEGGLFQEKDRVKIKGNISSQYISALLLIAPALKKGLTLEIEGELTSRPYVSMTLDMLKSVGIQHEWKNNAIKIAPQAFKKQTIYVEPDWSAASYWYAIAALADANASIVLPGLRKNSLQGDIAIISIMEHFGVQSSFESDGLHLNKKVIGSDVSLFNFKECPDLAQTVVVVAAALKRDVSFTGLETLKIKETDRIAALQKEIAKFGAELIEDGDTYHLKTAQVYQPEEVTFDTYEDHRMAMAFAPLALVFDQIKIAEPQVVEKSYPDFWNHLQAQAFVIE
modifications: GRG31 variant (clone 6e7)
In the case of B4, on GRG31 EPSP synthase [1], the Ki is 111 µM, the Km worked out at 3.4 µM and the Vmax is reported as 62. For the same molecule, the “Vmax improvement over GRG31” value in the data set with GRG31 EPSP synthase [1] (relative to GRG31) is 2 fold. In the data set with GRG31 EPSP synthase [1] (relative to GRG31, in words), the “Vmax relative to GRG31” value is reported as “improved” and the “improvement in Km for PEP relative to GRG31” value is recorded as “improved (lower)”. Also, the “thermostability of extracts of error prone PCR clones” value in the data set on GRG31 EPSP synthase [2] was “increased thermostability”. Moreover, in the data set with GRG31 EPSP synthase [2] (setting [5]), the “Percent of Wt GRG31 activity” value was 213%. In addition, in the data set on GRG31 EPSP synthase [2] (setting [6]), the “Percent of Wt GRG31 activity” value turned out to be 152%. In addition, in the data set on GRG31 EPSP synthase [3], the “thermostability compared to wild-type GRG31” value is given as “increased thermostability”.
